Data from patent publication US20250262210A1 (TRUSTEES OF COLUMBIA UNIVERSITY IN THE CITY OF NEW YORK, published 2025).

Key:
[1] = biological target: T1, AP4E1 (human, UniProt Q9UPM8 1-1137, limits assumed); assay: IP/MS, LZTR1 wild type-FLAG, U87
T1 sequence (looked up): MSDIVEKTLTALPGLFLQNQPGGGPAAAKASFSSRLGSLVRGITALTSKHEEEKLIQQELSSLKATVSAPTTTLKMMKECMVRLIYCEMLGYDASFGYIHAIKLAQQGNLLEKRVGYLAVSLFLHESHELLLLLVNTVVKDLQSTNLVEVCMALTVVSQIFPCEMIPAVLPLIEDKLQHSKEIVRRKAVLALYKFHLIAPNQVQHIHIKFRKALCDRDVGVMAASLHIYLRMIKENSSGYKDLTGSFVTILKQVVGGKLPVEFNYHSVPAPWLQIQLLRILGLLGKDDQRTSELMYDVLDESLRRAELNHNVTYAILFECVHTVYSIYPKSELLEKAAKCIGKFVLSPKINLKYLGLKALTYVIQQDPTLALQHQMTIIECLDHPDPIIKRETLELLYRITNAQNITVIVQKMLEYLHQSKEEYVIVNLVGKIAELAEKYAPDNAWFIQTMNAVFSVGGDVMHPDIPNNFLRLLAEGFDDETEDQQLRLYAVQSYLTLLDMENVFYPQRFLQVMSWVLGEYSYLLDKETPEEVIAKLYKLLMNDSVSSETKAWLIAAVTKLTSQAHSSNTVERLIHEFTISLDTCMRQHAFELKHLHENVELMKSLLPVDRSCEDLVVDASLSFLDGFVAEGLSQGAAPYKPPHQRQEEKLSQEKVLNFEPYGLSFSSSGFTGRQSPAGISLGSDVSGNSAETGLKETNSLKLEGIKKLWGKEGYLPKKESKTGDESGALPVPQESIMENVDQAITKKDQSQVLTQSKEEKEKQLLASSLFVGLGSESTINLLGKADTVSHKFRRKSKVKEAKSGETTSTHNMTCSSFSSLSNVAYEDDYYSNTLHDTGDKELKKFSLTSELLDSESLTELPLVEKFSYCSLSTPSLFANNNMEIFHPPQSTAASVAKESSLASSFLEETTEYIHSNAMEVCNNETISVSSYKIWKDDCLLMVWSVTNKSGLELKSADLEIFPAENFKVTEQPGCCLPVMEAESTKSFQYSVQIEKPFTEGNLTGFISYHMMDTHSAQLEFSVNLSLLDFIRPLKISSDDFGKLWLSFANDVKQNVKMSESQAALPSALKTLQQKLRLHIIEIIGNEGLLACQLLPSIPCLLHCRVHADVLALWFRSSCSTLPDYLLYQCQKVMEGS
Summary of the method: (§1)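 Read-out: spectral counts from LC-MS/MS (Orbitrap Fusion) after MaxQuant identification. Variable modifications were Met oxidation, protein N-terminal acetylation and N/Q deamidation.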

[2] = biological target: T2, RANBP6 (human, UniProt O60518 2-1105); assay: IP/MS, LZTR1 wild type-FLAG, U87
T2 sequence (looked up): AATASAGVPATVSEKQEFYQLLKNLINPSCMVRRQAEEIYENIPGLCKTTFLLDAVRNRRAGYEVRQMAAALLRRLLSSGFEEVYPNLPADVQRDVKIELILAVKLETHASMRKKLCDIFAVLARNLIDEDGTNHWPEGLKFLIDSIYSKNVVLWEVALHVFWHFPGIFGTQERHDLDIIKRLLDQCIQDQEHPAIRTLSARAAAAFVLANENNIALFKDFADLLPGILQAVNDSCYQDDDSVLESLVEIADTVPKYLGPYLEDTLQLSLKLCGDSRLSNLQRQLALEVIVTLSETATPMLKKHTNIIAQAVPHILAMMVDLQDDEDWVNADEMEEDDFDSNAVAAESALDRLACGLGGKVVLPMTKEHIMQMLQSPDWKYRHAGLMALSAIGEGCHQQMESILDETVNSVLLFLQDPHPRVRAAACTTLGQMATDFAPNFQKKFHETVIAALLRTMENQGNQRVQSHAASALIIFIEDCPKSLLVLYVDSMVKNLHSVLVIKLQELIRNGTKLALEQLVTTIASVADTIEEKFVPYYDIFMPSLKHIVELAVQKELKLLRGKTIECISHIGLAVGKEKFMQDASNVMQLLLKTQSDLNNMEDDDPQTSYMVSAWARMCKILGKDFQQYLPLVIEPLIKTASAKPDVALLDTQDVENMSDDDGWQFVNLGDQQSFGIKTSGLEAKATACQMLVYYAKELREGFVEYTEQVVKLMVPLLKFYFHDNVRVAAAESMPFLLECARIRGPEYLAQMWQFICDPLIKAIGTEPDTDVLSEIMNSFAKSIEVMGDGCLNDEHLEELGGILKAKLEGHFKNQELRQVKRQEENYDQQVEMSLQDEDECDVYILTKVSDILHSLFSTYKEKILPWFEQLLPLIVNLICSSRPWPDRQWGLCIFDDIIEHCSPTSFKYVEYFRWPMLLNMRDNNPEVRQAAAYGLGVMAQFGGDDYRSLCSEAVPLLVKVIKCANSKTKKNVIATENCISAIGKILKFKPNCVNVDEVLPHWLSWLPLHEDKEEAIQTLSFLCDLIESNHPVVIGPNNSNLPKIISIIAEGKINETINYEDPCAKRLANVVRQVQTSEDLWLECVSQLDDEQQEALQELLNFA
Summary of the method: as §1

B1: LZTR1-FLAG (other, human, UniProt Q8N653 1-840, looked up)
chain: MAGPGSTGGQIGAAALAGGARSKVAPSVDFDHSCSDSVEYLTLNFGPFETVHRWRRLPPCDEFVGARRSKHTVVAYKDAIYVFGGDNGKTMLNDLLRFDVKDCSWCRAFTTGTPPAPRYHHSAVVYGSSMFVFGGYTGDIYSNSNLKNKNDLFEYKFATGQWTEWKIEGRLPVARSAHGATVYSDKLWIFAGYDGNARLNDMWTIGLQDRELTCWEEVAQSGEIPPSCCNFPVAVCRDKMFVFSGQSGAKITNNLFQFEFKDKTWTRIPTEHLLRGSPPPPQRRYGHTMVAFDRHLYVFGGAADNTLPNELHCYDVDFQTWEVVQPSSDSEVGGAEVPERACASEEVPTLTYEERVGFKKSRDVFGLDFGTTSAKQPTQPASELPSGRLFHAAAVISDAMYIFGGTVDNNIRSGEMYRFQFSCYPKCTLHEDYGRLWESRQFCDVEFVLGEKEECVQGHVAIVTARSRWLRRKITQARERLAQKLEQEAAPVPREAPGVAAGGARPPLLHVAIREAEARPFEVLMQFLYTDKIKYPRKGHVEDVLLIMDVYKLALSFQLCRLEQLCRQYIEASVDLQNVLVVCESAARLQLSQLKEHCLNFVVKESHFNQVIMMKEFERLSSPLIVEIVRRKQQPPPRTPLDQPVDIGTSLIQDMKAYLEGAGAEFCDITLLLDGHPRPAHKAILAARSSYFEAMFRSFMPEDGQVNISIGEMVPSRQAFESMLRYIYYGEVNMPPEDSLYLFAAPYYYGFYNNRLQAYCKQNLEMNVTVQNVLQILEAADKTQALDMKRHCLHIIVHQFTKVSKLPTLRSLSQQLLLDIIDSLASHISDKQCAELGADI
notes: Expressed in HEK 293T, HeLa or U87 cells; used as cell lysate; also called LZTR1 wild type-FLAG; LZTR1 WT; not shown: FLAG tag at the C-terminus
binding result [1]: binds | binding result [2]: binds
